{
  "source": "the nanobody polyreactivity screen of Harvey et al. (2022)",
  "data": [
    {"experiment": "yeast display, Sf9 membrane polyspecificity reagent, FACS + sequencing; frameworks hold sequencing errors", "method_in_brief": "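Polyreactivity labels are assigned by the sorting gate from which each nanobody was recovered. The gates were low and high (top ~1%), set on anti-HA fluorescence for expression and streptavidin fluorescence for reagent binding. Before sorting, galactose-induced (36–48 hours) yeast display cells were stained for 1 hour at 4 °C with 10% biotinylated, detergent-solubilized Sf9 membrane reagent.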", "values": [
      {"sequence": "QVQLEESGGGLVQAGGSLRLTGAASGSTVVSYAMGWYRQERGKEWELVAAISSSSGRTRYADSVKGSFTISRDNAKNTVYLQMNSLKPEDTAVYYCAARRQSTRPGFYYWGQGTQVTVSS", "polyreactivity (PSR sort gate)": "high polyreactivity"},
      {"sequence": "QVQLEESGGGLVQAGGSLRVSCAPSGRTFGWYTMGWYRQAPGKERELVAVISSTGGRTYYADSVKGRFTISRDNAKNTVYLQMNSLKPEDTAVYYCAAEYVSAKWESGYWGQGTQVTVSS", "polyreactivity (PSR sort gate)": "low polyreactivity"},
      {"sequence": "QVQLEESGGGLVQAGGSLSLSCAASGNFFVLYAMGCYRQAPGKERELVASITSDGITYYADSVKGRFTMSRDNAKNTVYLQMNSLKPEDTAVYYCAVDRSYRYLPRGDYWGQGTQVTVSS", "polyreactivity (PSR sort gate)": "low polyreactivity"},
      {"sequence": "QVQLEESGGGLVQAGGSLSLSCDASGRNFEGYAMGWYRQAPGKERELVAAINWSGGTTHYADSVKGRFTISRDNANNTVYLQINSLKPADTAVYYCAVRGRTPYDYWGQGTQVTVSS", "polyreactivity (PSR sort gate)": "low polyreactivity"},
      {"sequence": "QVQLEESGGGLVQAGGTLRLSCAACGRTFYRYAMGWYRKAPGKERQLVAAISASGGITYYADSVKGRFTISRDNAKNNVYLQMNSLKADDTAVYYCAVRYNPWYGNYDYWGQGTQVTVSS", "polyreactivity (PSR sort gate)": "high polyreactivity"},
      {"sequence": "QVQLEESGGGLVQAGGTLRLSCAASGRIFGWYAMGWYRQPPGKERELVAAISSGGRTNYADSVKGRFTISRDNAKNTVYLQMNSLKPEDTAVYYCNARSTYLPYKFGYDYWGQGTQVTVSS", "polyreactivity (PSR sort gate)": "low polyreactivity"},
      {"sequence": "QVQLEESGGGLVQAGGTLRLSCAASGSIFRNYAMGWYRQAPGKEWQLVAAISRSGTSTYYADSVKGRFTISRDNAKNTVYFQMNSLKPEDYAVYYCNARTYVAVGFNYWGQGTQVTVSS", "polyreactivity (PSR sort gate)": "high polyreactivity"},
      {"sequence": "QVQLEESGGGLVQAGVSLRLSCAASGIIFHFNDMVWYRQAPGKERELLAAIDSTGSTNYADSVKGRFTISRDNAKNTVYLQMNSLKPEDTAVYYCAVLNHRVDSVLTRYYYWGQGTQVTVSS", "polyreactivity (PSR sort gate)": "low polyreactivity"},
      {"sequence": "QVQLEESGGGLVQAGVSLRLSCAASGRIFSSNAMGWYRQAPGKERELVAAITYSAGSTYYAVSVKGRFTISRDNAKNTVYLQMNSLKPEDTAVYYCAADSYYDRTIQFEFYARTYDYWGQGTQVTVSS", "polyreactivity (PSR sort gate)": "low polyreactivity"},
      {"sequence": "QVQLEESGGGLVQEGGSLRLSCAASGSIFGGYVMGWYRQAPGKERELVAVITKRGGSTYYADSVKGRFTISRDNAKNTVYFQMNSLKPEDTAVYYCNKDGYYASVLGYDYWGQGTQVTVSS", "polyreactivity (PSR sort gate)": "high polyreactivity"},
      {"sequence": "QVQLEESGGGLVQGGCSLRLSCAGSGSIFIQYDMGWYRQAPVIERELVATIRSGDSTTYADSVKGRFTISRDNAKNTVYLQMNSLKPEDTAVYYCAKDYRLDYDYDYWGQGTQVTVSS", "polyreactivity (PSR sort gate)": "low polyreactivity"},
      {"sequence": "QVQLEESGGGVVQAGGSLRISCAASGIIFYRYTMGWYRQAPGKERELVAAIASRGGSTYYADSVKGRFTISRDNAKNTVYLQMNSLKPEDTAVYYCAAGARYGKVRYGYWGQGTQVTVSS", "polyreactivity (PSR sort gate)": "high polyreactivity"},
      {"sequence": "QVQLEESGGGVVQAGGSLRLSCAASGSILGISAMGWYRPAPGKERALVAAIRTSSGSTYYADSVKVRFTISRDNAKNTVYFQMNSLKPEDTAVYSCAAYAFRYTPYYSWGQGTQVTVSS", "polyreactivity (PSR sort gate)": "high polyreactivity"},
      {"sequence": "QVQLEESGGRLVQAGGSLRLSCAASGGIFADYAMGWDRPAPGKERELVADISARGGSTYYADSVKGRFTISRDNAKNTVYLQMNSLKPEDTAVYYCAADALGYDYYYWGQGTQVTVSS", "polyreactivity (PSR sort gate)": "low polyreactivity"},
      {"sequence": "QVQLEESGRGLVQAGVSLRLSSAASGNTFVTNTMVWYRQAPGKERELVAAIDSGGDSYYADSVKGRFTISRDNAKNTVYFQMNSLKPEDTAVYYCAAVGDRNYFSNRRYEYWGQGTQVTVSS", "polyreactivity (PSR sort gate)": "low polyreactivity"},
      {"sequence": "QVQLEESGVGLVQAGGSLRLRCAASGSTVTDNTKGWYRQAPGKERELVAPISGVGSTYYSESVKGRFTISRDNAKNTVYFQMHSLKPEDTAVYYCNVYWGPFYRSGDKYGYWGQGTQVTVSS", "polyreactivity (PSR sort gate)": "low polyreactivity"},
      {"sequence": "QVQLEESGVGLVQAGGSLRLSWAASGFIIYINTMGWYRQAPGKERELVAAISQSGVGTSYADSVKGRFTISRDNAKNTVYLQMNRLKPEDTAVYYCATDCARSDVVDRFDYWGQGTQVTVSS", "polyreactivity (PSR sort gate)": "low polyreactivity"},
      {"sequence": "QVQLEESVGGLVQAGGSLRLSCAASGRIFVRNAMGWYRQAPGKERELVATITSIGGRTYYADSVKGRFTISRDNAKNTVYLQMNSLKPEDTAVYYCAAYNTQSYPAYLRYDYWGQGTQVTVSS", "polyreactivity (PSR sort gate)": "low polyreactivity"},
      {"sequence": "QVQLEETGGGLVQAGASLRISCAASGSIMGQNGMGWYRHAPGKEREFVAGIGYGTTTNYADSVKGRFTTSRDNAKNTVYLQMISMKPEDTAVYYCAAYQGNGYEFYYWGQGTQVTVRS", "polyreactivity (PSR sort gate)": "low polyreactivity"},
      {"sequence": "QVQLEETRGGLVQAGGSLRLSCAASGLFFGTYAMGWYRQPPGKEWELVAGITSSGGTTYYADSVKGRFTISRDNAKNTVYLQMNSLKPEDTAVYYCNARAVQSRYGYYYWGQGTQVTVSS", "polyreactivity (PSR sort gate)": "low polyreactivity"},
      {"sequence": "QVQLEVSAGGLVQAGGSLRLSCAASGSTFGYYAMGWYRQAPGKEWELVAAITSGASTNYSDSVKGRFTISRDNAKNSVYLQMNSLKPEDTAVYYCAAGFQTRTPLNEFDYWGQGTQVTVSS", "polyreactivity (PSR sort gate)": "low polyreactivity"},
      {"sequence": "QVQLGDSGGGLVQAGGSLRLSCAASGSIFSKYAMGWSRKAPGKERELVATISSSVGSTYYADSVKGRFTISRDNAKNSVYLQMNSLKPEDTAVYYCAARPDYEYGTHYRGGYWGQGTQVTVSS", "polyreactivity (PSR sort gate)": "low polyreactivity"},
      {"sequence": "QVQLGESGAGLVQAGGSLRLSCAASGRIFLIKAMGCDRQAPGKERELVAAIRRSVGSTYYADSVKGRFTISRDNAKNTVYLQMNSLKPEDTAVYYCATRDYYTYTGRTRYYYWGQGTQVTVSS", "polyreactivity (PSR sort gate)": "high polyreactivity"},
      {"sequence": "QVQLGESGGCLVQAGGSLRLSCAASGSPFYTYAMGWYRQAPGKERELVAASSFGGGSTYADSVKGRFTISRDNAKNTLYLQMNSLKPDDTAGYYCNTDLYLYGWYPREVQQYAGGDYWGQGTQVTVSS", "polyreactivity (PSR sort gate)": "low polyreactivity"},
      {"sequence": "QVQLGESGGGLVEAGGSLRLSCAASGSTCKFYVMGWYRQAPGKERELVAAIAIGGSTNYADSVKGRFTISRDNAKNTVSVQMNSLKPEDTAVYYCAAELLQIHYYYVYLSPSFKCDYWGQGTQVTGSS", "polyreactivity (PSR sort gate)": "low polyreactivity"},
      {"sequence": "QVQLGESGGGLVLAGGSLRLSCAASGSIFTHYAIGWYRQAPGKERELVAAISWSGGSTYYADSVKGRFTISRDNAQNTVYLQMNSLKPEDTAVYYCAALYYSRLSVSGEYDYWGQGTQVTVSS", "polyreactivity (PSR sort gate)": "high polyreactivity"},
      {"sequence": "QVQLGESGGGLVQAGGSLRISCAASGSILIANAMGWYRQAPGKERELVAPISRSGSTTYYADSVKGRFTISRDNAKNTVYLQMNSLKPEDTAVYYCNARYSLHSYYWFIYDSWGQGTQVTGSS", "polyreactivity (PSR sort gate)": "low polyreactivity"},
      {"sequence": "QVQLGESGGGLVQAGGSLRLICAASGFIVTTYVMGWYRQAPGKERELVAVISRSGGRTYYADSVKGRFTISRDNAKNTVYLQMNSLKPEDTAVYYCNVDIPVLSHIEYYYWGQGTQVTVSS", "polyreactivity (PSR sort gate)": "low polyreactivity"},
      {"sequence": "QVQLGESGGGLVQAGGSLRLRCAASGSTFEFYAMGWYRQAPGKERELVASITSSSGPTYYADSVKGRFTISRDNAKNTVYLQMNSLKPEDTAVFYCAKRPIRYYHLLRGNYWGQGTQVTVSS", "polyreactivity (PSR sort gate)": "low polyreactivity"},
      {"sequence": "QVQLGESGGGLVQAGGSLRLSCAASGFTFTHYSMGWYRQAPGKERELVAAISTSGGSTYYADSVKGRFTISRDTAKNSVYLQMNSLKPEDTAVYYCAARRDGCVLWGYYYWGQGTQVTVSS", "polyreactivity (PSR sort gate)": "low polyreactivity"},
      {"sequence": "QVQLGESGGGLVQAGGSLRLSCAASGGTYTHYGMGWYRQATGKERELVAAITWTASSTYYADSVKGRFTISRDNAKNTVYLQMNSLKPEDTAVYYCATSYYYWGHTYDYWGQGTQVTVSS", "polyreactivity (PSR sort gate)": "low polyreactivity"},
      {"sequence": "QVQLGESGGGLVQAGGSLRLSCAASGIIFRRYAMGWYRQAPGKERELVAVISSGGSTNYADSVKGRFTISRDNAKNTVYLQMNSLKPEDTAVYYCAAPSQSRGYYYWGQGTQVTVSS", "polyreactivity (PSR sort gate)": "high polyreactivity"},
      {"sequence": "QVQLGESGGGLVQAGGSLRLSCAASGIIIFLYAMGWYRPAPGKEREFVAAINYSSGSTYYADSVKGRFTISRDNAKNTVYLQMNSLKPEDTAVYYCAADPVHRYPGTGGYWGQGTQVTVSS", "polyreactivity (PSR sort gate)": "low polyreactivity"},
      {"sequence": "QVQLGESGGGLVQAGGSLRLSCAASGLTFPVYPMGWYRQAPGKEREFVTAITYNGGRTYYADSVKGRFTISRDNAKNTVYLQMNSLKPEDTAVYYCNAARSRGANLVPPYRLYYWGQGTQVTVSS", "polyreactivity (PSR sort gate)": "low polyreactivity"},
      {"sequence": "QVQLGESGGGLVQAGGSLRLSCAASGRIFAYYTMGWYRQAPGKERELVAAITSGGSTYYADSVKGRFTISRDYAKNTVYLQMNSLKPEATAVYYCAAGWYTPVYLYYYWGQGTQVTVSS", "polyreactivity (PSR sort gate)": "high polyreactivity"},
      {"sequence": "QVQLGESGGGLVQAGGSLRLSCAASGRIIPYYAMGWYRQAPGKERELVAAISLSGGSTYYADSVKGRFTISRDIAKNTVYLQMNSLKPEDTAVYYCNAVASTYGYYWYPGLGYDYWGQGTQVTVSS", "polyreactivity (PSR sort gate)": "low polyreactivity"},
      {"sequence": "QVQLGESGGGLVQAGGSLRLSCAASGRILAKYAMGWSRQAPWKEREFVAAISYSGGSTYYADSVKGRFTISRDNAKNTVYLQMNSLKPEDTAVYYCAARYTFDRWKFGYWGQGTQVTVSS", "polyreactivity (PSR sort gate)": "high polyreactivity"},
      {"sequence": "QVQLGESGGGLVQAGGSLRLSCAASGRILSVYVMGWYRQAPGKERELVAAIRRGGYTYYADSVKGRFTISRDNAKNTVYLQMNSLKQEDTAVYYCNARQRPPPYYYWGQGTQLTVSS", "polyreactivity (PSR sort gate)": "high polyreactivity"},
      {"sequence": "QVQLGESGGGLVQAGGSLRLSCAASGRTFIYDAMGWYRQAPGKERELVAGISRNGGRTYYADSVKGRFTISRDNAKNTVYLKMNSLKPEDTAVYYCIARTYSYRGYNYWGQGTQVTVSS", "polyreactivity (PSR sort gate)": "high polyreactivity"},
      {"sequence": "QVQLGESGGGLVQAGGSLRLSCAASGSIFNYYTMGWYRQAPGKERELVAAISSSGGSTYYADSVKGRFTISRDNAKNTVYLQMNSRKPEDTAVYYCAALGRYFTSAGGYWGQGTQVTVSS", "polyreactivity (PSR sort gate)": "high polyreactivity"},
      {"sequence": "QVQLGESGGGLVQAGGSLRLSCAASGSIFSNYAMGWYRQAPWKERELVATIRLSGGSTYYADSVKGRFTISRDNAKNTVYLQMNSLKPEDTAVYDCAARIHWPYWYARLDYWGQVTQVTVSS", "polyreactivity (PSR sort gate)": "high polyreactivity"},
      {"sequence": "QVQLGESGGGLVQAGGSLRLSCAASGSIFTGNAMGWYRQAPGKERELVAAITNGGITNYADSVKRRFTISRDNAKNTFYLQMNSLKPEDTAVYYCAADYVDFYSFRRFDYWGQGSQVTVSS", "polyreactivity (PSR sort gate)": "low polyreactivity"},
      {"sequence": "QVQLGESGGGLVQAGGSLRLSCAASGSTFGGYAMGWYRQAPGKERELVAAISSSGTSTYYADSVKGRFTISRDNAKNTVYLQMNSLKPDDTAVYYCATDFSFFSRFDYWGQGTQVTVSS", "polyreactivity (PSR sort gate)": "low polyreactivity"}
    ]}
  ]
}
